# Laboratory results published in IntAct's records for PubMed 28934384.
# B1: Protein kinase C epsilon type (Homo sapiens), Q02156 (parent)
# chain: MVVFNGLLKIKICEAVSLKPTAWSLRHAVGPRPQTFLLDPYIALNVDDSRIGQTATKQKTNSPAWHDEFVTDVCNGRKIELAVFHDAPIGYDDFVANCTIQFEELLQNGSRHFEDWIDLEPEGRVYVIIDLSGSSGEAPKDNEERVFRERMRPRKRQGAVRRRVHQVNGHKFMATYLRQPTYCSHCRDFIWGVIGKQGYQCQVCTCVVHKRCHELIITKCAGLKKQETPDQVGSQRFSVNMPHKFGIHNYKVPTFCDHCGSLLWGLLRQGLQCKVCKMNVHRRCETNVAPNCGVDARGIAKVLADLGVTPDKITNSGQRRKKLIAGAESPQPASGSSPSEEDRSKSAPTSPCDQEIKELENNIRKALSFDNRGEEHRAASSPDGQLMSPGENGEVRQGQAKRLGLDEFNFIKVLGKGSFGKVMLAELKGKDEVYAVKVLKKDVILQDDDVDCTMTEKRILALARKHPYLTQLYCCFQTKDRLFFVMEYVNGGDLMFQIQRSRKFDEPRSRFYAAEVTSALMFLHQHGVIYRDLKLDNILLDAEGHCKLADFGMCKEGILNGVTTTTFCGTPDYIAPEILQELEYGPSVDWWALGVLMYEMMAGQPPFEADNEDDLFESILHDDVLYPVWLSKEAVSILKAFMTKNPHKRLGCVASQNGEDAIKQHPFFKEIDWVLLEQKKIKPPFKPRIKTKRDVNNFDQDFTREEPVLTLVDEAIVKQINQEEFKGFSYFGEDLMP
# B2: Protein kinase C epsilon type (Homo sapiens), Q02156 (parent)
# chain: B1 chain
# partner: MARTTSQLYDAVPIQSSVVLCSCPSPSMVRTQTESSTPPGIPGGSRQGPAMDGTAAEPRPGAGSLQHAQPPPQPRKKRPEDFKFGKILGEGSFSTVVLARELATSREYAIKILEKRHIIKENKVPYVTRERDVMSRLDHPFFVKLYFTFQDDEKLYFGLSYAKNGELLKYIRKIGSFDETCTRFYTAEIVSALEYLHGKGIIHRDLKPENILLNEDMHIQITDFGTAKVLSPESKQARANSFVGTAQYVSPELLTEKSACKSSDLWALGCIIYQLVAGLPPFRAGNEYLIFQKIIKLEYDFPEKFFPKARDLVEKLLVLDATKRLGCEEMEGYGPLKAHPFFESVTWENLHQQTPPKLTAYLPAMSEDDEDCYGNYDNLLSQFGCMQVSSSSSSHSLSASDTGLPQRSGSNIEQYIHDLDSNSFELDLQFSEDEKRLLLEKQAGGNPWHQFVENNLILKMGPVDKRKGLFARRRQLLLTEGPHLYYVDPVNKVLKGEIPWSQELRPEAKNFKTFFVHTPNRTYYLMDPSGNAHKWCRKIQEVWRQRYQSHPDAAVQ
# Variants of: B1
# Conditions: with sin1_human MAPKAP1, Q9BPZ7
# Sequence of sin1_human MAPKAP1, Q9BPZ7 (Q9BPZ7 whole entry): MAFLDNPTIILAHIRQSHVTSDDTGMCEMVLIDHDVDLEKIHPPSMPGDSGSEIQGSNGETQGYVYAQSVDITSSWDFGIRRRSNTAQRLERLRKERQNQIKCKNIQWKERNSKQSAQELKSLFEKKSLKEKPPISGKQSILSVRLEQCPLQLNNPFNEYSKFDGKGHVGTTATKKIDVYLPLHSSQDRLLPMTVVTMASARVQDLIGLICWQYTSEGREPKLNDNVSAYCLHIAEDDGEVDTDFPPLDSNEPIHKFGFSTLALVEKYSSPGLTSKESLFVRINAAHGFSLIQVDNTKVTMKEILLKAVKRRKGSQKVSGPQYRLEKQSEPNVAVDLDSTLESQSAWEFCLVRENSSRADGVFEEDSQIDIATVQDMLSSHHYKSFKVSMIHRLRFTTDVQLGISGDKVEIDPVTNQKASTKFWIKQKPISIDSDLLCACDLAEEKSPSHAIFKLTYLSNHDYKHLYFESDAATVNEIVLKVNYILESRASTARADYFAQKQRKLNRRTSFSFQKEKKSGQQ
row,effect of a mutation on the interaction,Variant
1,increasing interaction strength,E599K

# Variants of: B2
# Conditions: with pdpk1_human PDPK1, O15530
row,effect of a mutation on the interaction,Variant
1,with no effect,E599K
